Measured values taken from the Immune Epitope Database (IEDB).

How the values were obtained:
Assay in all cases: IEDB peptide-MHC binding, purified MHC/competitive/radioactivity; filed as Kd, often an IC50 or EC50 that approximates it; ≥ and ≤ were set here for values at or beyond the usual limits of such assays
HLA-A*31:01 = target: HLA-A*31:01
HLA-A*11:01 = target: HLA-A*11:01
HLA-A*68:01 = target: HLA-A*68:01
HLA-A*33:01 = target: HLA-A*33:01
HLA-A*03:01 = target: HLA-A*03:01
[1] = source organism: Vaccinia virus WR
[2] = source organism: Mammarenavirus mopeiaense
[3] = source organism: Dengue virus 4 Philippines/H241/1956
[4] = source organism: SARS coronavirus Tor2
[5] = source organism: Dengue virus 2 Jamaica/1409/1983
[6] = source organism: Dengue virus 4 Dominica/814669/1981
[7] = source organism: Dengue virus 3 Martinique/1243/1999
[8] = source organism: Dengue virus 1 Brazil/97-11/1997
[9] = source organism: Dengue virus 4 Thailand/0348/1991

## KAIEKDRLDK
HLA-A*31:01; [1]
  Kd: ≥ 21800 nM
HLA-A*11:01; [1]
  Kd: 1200 nM
HLA-A*68:01; [1]
  Kd: 4730 nM
HLA-A*33:01; [1]
  Kd: ≥ 70000 nM
HLA-A*03:01; [1]
  Kd: 12600 nM

## KASMLEKYK
HLA-A*31:01; [1]
  Kd: 181 nM
HLA-A*11:01; [1]
  Kd: 110 nM
HLA-A*68:01; [1]
  Kd: 2850 nM
HLA-A*33:01; [1]
  Kd: ≥ 39200 nM
HLA-A*03:01; [1]
  Kd: 4040 nM

## KCFGNTAIAK
HLA-A*31:01; [2]
  Kd: 528 nM
HLA-A*11:01; [2]
  Kd: 7370 nM
HLA-A*68:01; [2]
  Kd: 7870 nM
HLA-A*33:01; [2]
  Kd: 3380 nM
HLA-A*03:01; [2]
  Kd: 195 nM

## KSKQDRSDGY
HLA-A*31:01; [1]
  Kd: ≥ 70000 nM
HLA-A*11:01; [1]
  Kd: ≥ 69800 nM
HLA-A*68:01; [1]
  Kd: ≥ 70200 nM
HLA-A*33:01; [1]
  Kd: ≥ 70000 nM
HLA-A*03:01; [1]
  Kd: ≥ 35300 nM

## KSMFWDGMDY
HLA-A*31:01; [1]
  Kd: 77.2 nM
HLA-A*11:01; [1]
  Kd: 1.75 nM
HLA-A*68:01; [1]
  Kd: 511 nM
HLA-A*33:01; [1]
  Kd: ≥ 66200 nM
HLA-A*03:01; [1]
  Kd: 5.79 nM

## KSRRLNLFSK
HLA-A*31:01; [1]
  Kd: 647 nM
HLA-A*11:01; [1]
  Kd: 1090 nM
HLA-A*68:01; [1]
  Kd: ≥ 70200 nM
HLA-A*33:01; [1]
  Kd: ≥ 70000 nM
HLA-A*03:01; [1]
  Kd: 640 nM

## KVASAGISYK
HLA-A*11:01; [3]
  Kd: 22.7 nM
HLA-A*03:01; [3]
  Kd: 3.14 nM

## KVKTELVMDK
HLA-A*31:01; [1]
  Kd: 120 nM
HLA-A*11:01; [1]
  Kd: 409 nM
HLA-A*68:01; [1]
  Kd: ≥ 48600 nM
HLA-A*33:01; [1]
  Kd: ≥ 70000 nM
HLA-A*03:01; [1]
  Kd: 1330 nM

## KVVDTFISY
HLA-A*31:01; [1]
  Kd: 1170 nM
HLA-A*11:01; [1]
  Kd: 4.98 nM
HLA-A*68:01; [1]
  Kd: 3380 nM
HLA-A*33:01; [1]
  Kd: 12300 nM
HLA-A*03:01; [1]
  Kd: 7.9 nM

## LALTDVEKR
HLA-A*31:01; [1]
  Kd: 209 nM
HLA-A*11:01; [1]
  Kd: 12300 nM
HLA-A*68:01; [1]
  Kd: 162 nM
HLA-A*33:01; [1]
  Kd: ≥ 73300 nM
HLA-A*03:01; [1]
  Kd: ≥ 78000 nM

## LAMDEFIQR
HLA-A*31:01; [4]
  Kd: 362 nM
HLA-A*11:01; [4]
  Kd: 2390 nM
HLA-A*68:01; [4]
  Kd: 612 nM
HLA-A*33:01; [4]
  Kd: 1450 nM
HLA-A*03:01; [4]
  Kd: ≥ 78000 nM

## LTTLSRTSKK
HLA-A*11:01; [5]
  Kd: 1860 nM

## MIKMFSQIDR
HLA-A*31:01; [1]
  Kd: 2.43 nM
HLA-A*11:01; [1]
  Kd: 3790 nM
HLA-A*68:01; [1]
  Kd: 1.6 nM
HLA-A*33:01; [1]
  Kd: 45.3 nM
HLA-A*03:01; [1]
  Kd: 2250 nM

## MMKLGISPSK
HLA-A*31:01; [1]
  Kd: 382 nM
HLA-A*11:01; [1]
  Kd: 27.1 nM
HLA-A*68:01; [1]
  Kd: 81.1 nM
HLA-A*33:01; [1]
  Kd: 10600 nM
HLA-A*03:01; [1]
  Kd: 11.5 nM

## MQNCLLRLK
HLA-A*31:01; [4]
  Kd: 13.1 nM
HLA-A*11:01; [4]
  Kd: 17.7 nM
HLA-A*68:01; [4]
  Kd: 1370 nM
HLA-A*33:01; [4]
  Kd: 12100 nM
HLA-A*03:01; [4]
  Kd: 98.3 nM

## MTLMKGASRR
HLA-A*31:01; [6]
  Kd: 81.9 nM
HLA-A*68:01; [6]
  Kd: 39.7 nM
HLA-A*33:01; [6]
  Kd: 68.5 nM

## NAISSRVDR
HLA-A*31:01; [1]
  Kd: 1280 nM
HLA-A*11:01; [1]
  Kd: ≥ 37100 nM
HLA-A*68:01; [1]
  Kd: 14.9 nM
HLA-A*33:01; [1]
  Kd: 96 nM
HLA-A*03:01; [1]
  Kd: ≥ 78000 nM

## NFLKEQHCQK
HLA-A*31:01; [4]
  Kd: 1470 nM
HLA-A*11:01; [4]
  Kd: 13300 nM
HLA-A*68:01; [4]
  Kd: ≥ 36400 nM
HLA-A*33:01; [4]
  Kd: 1220 nM
HLA-A*03:01; [4]
  Kd: 7280 nM

## NLLDSYFVVK
HLA-A*31:01; [4]
  Kd: 7220 nM
HLA-A*11:01; [4]
  Kd: 1870 nM
HLA-A*68:01; [4]
  Kd: 2350 nM
HLA-A*33:01; [4]
  Kd: 4590 nM
HLA-A*03:01; [4]
  Kd: 5370 nM

## NLTDTNFKK
HLA-A*31:01; [1]
  Kd: 9070 nM
HLA-A*11:01; [1]
  Kd: 658 nM
HLA-A*68:01; [1]
  Kd: 27 nM
HLA-A*33:01; [1]
  Kd: 4430 nM
HLA-A*03:01; [1]
  Kd: 1220 nM

## NMLKRERNR
HLA-A*33:01; [5]
  Kd: 79 nM

## NVHEHINDQK
HLA-A*31:01; [1]
  Kd: ≥ 70000 nM
HLA-A*11:01; [1]
  Kd: 18400 nM
HLA-A*68:01; [1]
  Kd: 4.38 nM
HLA-A*33:01; [1]
  Kd: ≥ 29200 nM
HLA-A*03:01; [1]
  Kd: 4050 nM

## PLIDIIRKR
HLA-A*31:01; [1]
  Kd: 6250 nM
HLA-A*11:01; [1]
  Kd: ≥ 48100 nM
HLA-A*68:01; [1]
  Kd: 974 nM
HLA-A*33:01; [1]
  Kd: 1020 nM
HLA-A*03:01; [1]
  Kd: ≥ 45700 nM

## PTFAAGLLLR
HLA-A*68:01; [5]
  Kd: 837 nM

## PVNQFTGYLK
HLA-A*31:01; [4]
  Kd: ≥ 70000 nM
HLA-A*11:01; [4]
  Kd: 764 nM
HLA-A*68:01; [4]
  Kd: 2260 nM
HLA-A*33:01; [4]
  Kd: ≥ 61900 nM
HLA-A*03:01; [4]
  Kd: 5330 nM

## QFIKPVSDLY
HLA-A*31:01; [1]
  Kd: ≥ 46500 nM
HLA-A*11:01; [1]
  Kd: ≥ 38300 nM
HLA-A*68:01; [1]
  Kd: 1270 nM
HLA-A*33:01; [1]
  Kd: ≥ 42600 nM
HLA-A*03:01; [1]
  Kd: ≥ 70100 nM

## QFNFNGHTY
HLA-A*31:01; [1]
  Kd: 565 nM
HLA-A*11:01; [1]
  Kd: 14200 nM
HLA-A*68:01; [1]
  Kd: 175 nM
HLA-A*33:01; [1]
  Kd: ≥ 64600 nM
HLA-A*03:01; [1]
  Kd: 5300 nM

## QTVKPGNFNK
HLA-A*31:01; [4]
  Kd: 1510 nM
HLA-A*11:01; [4]
  Kd: 249 nM
HLA-A*68:01; [4]
  Kd: 418 nM
HLA-A*33:01; [4]
  Kd: 10500 nM
HLA-A*03:01; [4]
  Kd: 2730 nM

## RALKAYFTAK
HLA-A*31:01; [1]
  Kd: 38.8 nM
HLA-A*11:01; [1]
  Kd: 26.5 nM
HLA-A*68:01; [1]
  Kd: 1950 nM
HLA-A*33:01; [1]
  Kd: 16000 nM
HLA-A*03:01; [1]
  Kd: 12.4 nM

## RFQPFQQFGR
HLA-A*31:01; [4]
  Kd: 1.06 nM
HLA-A*11:01; [4]
  Kd: ≥ 35100 nM
HLA-A*68:01; [4]
  Kd: 540 nM
HLA-A*33:01; [4]
  Kd: 1300 nM
HLA-A*03:01; [4]
  Kd: 13500 nM

## RINGIPQQH
HLA-A*03:01; source organism: Homo sapiens
  Kd: 110 nM

## RLGLVLDDYK
HLA-A*31:01; [1]
  Kd: 2220 nM
HLA-A*11:01; [1]
  Kd: 37.8 nM
HLA-A*68:01; [1]
  Kd: 506 nM
HLA-A*33:01; [1]
  Kd: ≥ 70000 nM
HLA-A*03:01; [1]
  Kd: 48.9 nM

## RLPTFMTQK
HLA-A*03:01; [5]
  Kd: 2.36 nM

## RMLNILNRR
HLA-A*31:01; [5]
  Kd: 2.42 nM

## SALTLHWFR
HLA-A*31:01; [3]
  Kd: 0.247 nM
HLA-A*68:01; [3]
  Kd: 2.37 nM
HLA-A*33:01; [3]
  Kd: 3.7 nM

## SIMKSVGTGK
HLA-A*11:01; [7]
  Kd: 20.5 nM
HLA-A*03:01; [7]
  Kd: 8.3 nM

## TFAAGLLLR
HLA-A*33:01; [5]
  Kd: 68.1 nM

## TIEEGRTLR
HLA-A*33:01; [8]
  Kd: 382 nM

## TMRCIGISNR
HLA-A*31:01; [5]
  Kd: 3.66 nM
HLA-A*33:01; [5]
  Kd: 14.1 nM

## TTNIWLKLR
HLA-A*31:01; [5]
  Kd: 2.64 nM
HLA-A*33:01; [5]
  Kd: 7.25 nM

## TVASAAQRR
HLA-A*68:01; [8]
  Kd: 33.8 nM

## TVMAFHLSTR
HLA-A*31:01; [9]
  Kd: 5.92 nM
HLA-A*11:01; [9]
  Kd: 69.4 nM
HLA-A*68:01; [9]
  Kd: 4.43 nM
HLA-A*33:01; [9]
  Kd: 21.3 nM

## VLARWGTFKK
HLA-A*03:01; [7]
  Kd: 18.3 nM

## VTAASAAQRR
HLA-A*68:01; [7]
  Kd: 42.4 nM

## WSYYMATLK
HLA-A*11:01; [3]
  Kd: 16.1 nM
HLA-A*68:01; [3]
  Kd: 1.83 nM
HLA-A*03:01; [3]
  Kd: 3.33 nM

## YQNKVVKVLR
HLA-A*33:01; [3]
  Kd: 446 nM

## YVCKHTYVDR
HLA-A*31:01; [7]
  Kd: 133 nM
HLA-A*68:01; [7]
  Kd: 890 nM

## YVSAIAQAK
HLA-A*68:01; [8]
  Kd: 36.2 nM
